Assay results: doi:10.1101/2023.12.21.572878
Values joined by “and” are separate entries in the source; they are usually repeats but may differ in a detail not shown here. Equal values may be shown once.

Columns and labels:
[1] = target: Dimeric kinesin K401-BIO-H6 (Drosophila | E. coli) (UniProt P17210); assay: mass photometry
Streptavidin = Streptavidin (UniProt P22629); assay: mass photometry
Chain of Streptavidin (P22629 25-183): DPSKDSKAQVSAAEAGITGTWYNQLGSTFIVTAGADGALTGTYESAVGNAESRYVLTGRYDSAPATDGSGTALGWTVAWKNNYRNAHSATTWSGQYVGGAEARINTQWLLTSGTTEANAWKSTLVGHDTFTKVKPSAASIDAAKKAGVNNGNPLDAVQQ

Substance: Dimeric kinesin K401-BIO-H6 (from UniProt P17210 1-401)
- stoichiometry N [1]: 2
- stoichiometry N (kinesin dimers per streptavidin tetramer) (Streptavidin): 1 and 2 and 3
